The assay has as its target humanized CD47 polypeptide on red blood cells from humanized CD47 mice (human extracellular and transmembrane portions with mouse signal peptide portion and mouse intracytoplasmic tail) (UniProt Q08722). The experiment in a line: flow cytometry on RBCs from humanized CD47 mice, isotype control (baseline).
UniProt Q08722, sequence (Q08722 other isoform, or with tags, fused parts or gaps limits assumed): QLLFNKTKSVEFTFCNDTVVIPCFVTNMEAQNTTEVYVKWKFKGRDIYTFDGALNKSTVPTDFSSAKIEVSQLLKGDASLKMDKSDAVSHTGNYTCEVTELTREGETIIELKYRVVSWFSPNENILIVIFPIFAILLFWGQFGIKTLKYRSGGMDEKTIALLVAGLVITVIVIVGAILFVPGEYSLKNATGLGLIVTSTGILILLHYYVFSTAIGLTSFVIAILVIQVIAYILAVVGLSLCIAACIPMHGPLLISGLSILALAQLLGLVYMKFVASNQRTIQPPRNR

The substance Control, hIgG4 (antibody) registered an MFI of 112 MFI.
The substance Control, hIgG4s (antibody) yielded an MFI of 112 MFI.

The record behind these values is patent US20240138384A1.
